Experimental data from patent publication US20200239555A1 (STATEN BIOTECHNOLOGY B V, published 2020).

What was measured:
native human ApoC3 [1] = biological target: T1, native human ApoC3 (human, UniProt P02656 21-99); assay: SPR, IgG1 over ApoC3 on CM5 chip, pH 5.5
T1 construct: also called nhuApoC3; native huApoC3
Protocol: (§1) Based on the results in Example 1, test scFv-Fc antibodies were generated as human IgG₁ antibodies. An SPR-based assay was employed, in which human ApoC3 protein was immobilized on a CM5 chip, and the binding kinetics of test antibodies to the coated chip were measured at both pH 7.4 and pH 5.5. Briefly, a solution of 50 μg/ml of native human ApoC3 in 10 mM acetate buffer at pH 4.5 was prepared and injected until the surface density reached approximately 500 RU. 60 μl of each test antibody was diluted in HBS-EP buffer (GE, cat. nr. BR-1008-26; 0.010 M HEPES, 0.150M NaCl, 3 mM EDTA, 0.05% (v/v) surfactant P20, pH 7.4), and was injected at a concentration as described in Table 9. The test antibodies were passed through the flow cells at a flow rate of 30 μl/min, followed by an off-rate wash at pH 7.4 or pH 5.5 for 5 min. The resulting sensorgrams were analyzed using the BIAevaluation 4.1 software applying the Langmuir 1:1 binding model to derive binding kinetics. Data was zero adjusted and the reference cell sensorgrams were subtracted.

native human ApoC3 [2] = biological target: T1, native human ApoC3; assay: SPR, IgG1 over ApoC3 on CM5 chip, pH 7.4
Protocol: as §1

native human ApoC3 [3] = biological target: T1, native human ApoC3; assay: SPR, ApoC3 over captured IgG1, pH 7.4
Protocol: (§2) An inverted SPR assay was designed in which a test antibody was captured on an SPR chip, human ApoC3 protein was injected, and binding of ApoC3 to the antibody was measured. […] The immobilization was performed in accordance with the method provided by Biacore/GE using the NHS/EDC kit (Biacore AB, Cat.nr. BR-1000-50): after activation of the chip, a solution of 30 μg/ml of anti-human Fcγ antibody in 10 mM acetate buffer with pH of 5.0 was prepared and injected until the surface density reached approximately 10000 RU. The analytical cycle comprised the following steps:
(§3) The resulting sensorgrams were analyzed using the BIAevaluation 4.1 software using Langmuir 1:1 binding model to derive binding kinetics. Data was zero adjusted, the reference cell sensorgrams were subtracted and the no analyte blank assay was used for double referencing the sensorgrams corresponding to the analyte injections. The dissociation and association phase sensorgrams were fitted separately for the 4 different concentration curves. Sensorgrams were excluded from the fitting if maximum RU values reached were below the detection limit of the equipment (<5 RU), Biacore 3000 (Biacore AB).

[4] = biological target: T2, biotinylated native human ApoC3 (human, UniProt P02656 21-99, biotinylated (site not stated)); assay: SPR, IgG1 over biotinylated ApoC3 on SA chip
T2 construct: also called biotinylated human ApoC3
T2 sequence (P02656 21-99): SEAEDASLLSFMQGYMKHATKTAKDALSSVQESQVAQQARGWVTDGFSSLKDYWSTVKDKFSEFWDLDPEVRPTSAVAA
Protocol: (§4) Biotinylated native human ApoC3 was captured on a streptavidin coated SPR chip (GE Healthcare, cat. nr. BR100032) at pH 7.4, in accordance with the method provided by Biacore, by injection of 20 μl 10 μg/ml biotinylated native human ApoC3 reaching the surface density of approximately 500 RU. 60 μL of test antibody in 1-50 nM range diluted in HBS-EP buffer (GE, cat # BR-1008-26; 0.010 M HEPES, 0.150M NaCl, 3 mM EDTA, 0.05% (v/v) surfactant P20, pH 7.4) was injected and passed through the flow cells at a flow rate of 30 μl/min, followed by an off-rate wash at pH7.4 for 5 min. After the dissociation, the flow cell surfaces were regenerated by injecting 10 μl of 10 mM NaOH/1 M NaCl and 10 μl of 10 mM glycine at pH1.5. The assay was repeated at pH5.5 using the same general protocol, where the running and sample dilution buffer was replaced by a HBS-EP buffer supplemented with citrate buffer to 10 mM final concentration and pH adjusted to 5.5.
(§5) The resulting sensorgrams were analyzed using the BIAevaluation 4.1 software using Langmuir 1:1 binding model to derive binding kinetics. Data was zero adjusted and the reference cell sensorgrams were subtracted. Sensorgrams were double referenced to no-analyte blank assay. Fitted parameters were considered not applicable if off-rate values were below the equipment's detection limit of kd: 1×10⁻⁶ 1/s.

[5] = biological target: T2, biotinylated native human ApoC3; assay: SPR, IgG1 over biotinylated ApoC3 on SA chip, pH 5.5
Protocol: as §4, §5

[6] = biological target: T2, biotinylated native human ApoC3; assay: SPR, IgG1 over biotinylated ApoC3 on SA chip, pH 7.4
Protocol: as §4, §5

native human ApoC3 [7] = biological target: T1, native human ApoC3; assay: SPR, ApoC3 over captured IgG1
Protocol: as §2, §3

native human ApoC3 [8] = biological target: T1, native human ApoC3; assay: SPR, ApoC3 over captured IgG1, pH 5.5
Protocol: as §2, §3

T1 sequence (P02656 21-99): as above

koff (native human ApoC3 [1])	kon (native human ApoC3 [1])	koff (native human ApoC3 [2])	kon (native human ApoC3 [2])	Ka (native human ApoC3 [3])	koff (native human ApoC3 [3])	kon (native human ApoC3 [3])	KD pH5.5/KD pH7.4 [4]	Ka [5]	koff [5]	kon [5]	Ka [6]	Kd [6]	koff [6]	kon [6]	KD (nM) pH5.5/pH7.4 (native human ApoC3 [7])	Ka (native human ApoC3 [8])	koff (native human ApoC3 [8])	kon (native human ApoC3 [8])	Kd [5]	Binder	also measured
				2.82e+07 M⁻¹	0.00463 s⁻¹	130000 M⁻¹ s⁻¹	9.21	2.4e+09 M⁻¹	0.000296 s⁻¹	710000 M⁻¹ s⁻¹	2.21e+10 M⁻¹	0.05 nM	2.9e-05 s⁻¹	640000 M⁻¹ s⁻¹	4.42	6.37e+06 M⁻¹	0.0198 s⁻¹	127000 M⁻¹ s⁻¹	0.42 nM	mAb19 (antibody, IgG1, V domains shown, Produced as full length IgG1 (kappa) in ExpiCHO-S cells; also called humanized anti-ApoC3 antibody mAb19) VH: QLVESGGGLVQPGGSLRLSCAASGFTFSTYSMRWVRQAPGKGLEWVSSIHTDAGGTAYRDSVKGRFTISRDNAKNTLYLQMNNLRPEDTAVYYCVIAGYSDWGQGTLVTVSS VL: DIVMTQSPGSLSVTPGEPASISCKTSQGLVHSGGKTYFYWFLQKPGQSPQQLIYQVSNRASGVPDRFTGSGSGTDFTLKISGVEAEDAGVYYCAQGTYYPHTFGQGTRLEIK	Kd (native human ApoC3 [3]): 36 nM
				1.6e+07 M⁻¹	0.00616 s⁻¹	98700 M⁻¹ s⁻¹	7.37	2.92e+09 M⁻¹	0.000276 s⁻¹	806000 M⁻¹ s⁻¹	2.15e+10 M⁻¹	0.05 nM	2.33e-05 s⁻¹	503000 M⁻¹ s⁻¹	4.12	3.89e+06 M⁻¹	0.0217 s⁻¹	84500 M⁻¹ s⁻¹	0.34 nM	mAb17 (antibody, IgG1, V domains shown, Produced as full length IgG1 (kappa) in ExpiCHO-S cells; also called humanized anti-ApoC3 antibody mAb17) VH: QLVESGGGLVQPGGSLRLSCAASGFTFSTYSMRWVRQAPGKGLEWVSSIHTEAGGTAYRDSVKGRFTISRDNAKNTLYLQMNNLRAEDTAVYYCVIAGYSDWGQGTLVTVSS VL: DIVMTQSPLSLPVTPGEPASISCKTSQGLVHSGGKTYFYWFLQKPGQSPQQLIYQVSNRASGVPDRFTGSGSGTDFTLKISRVEAEDAGVYYCAQGTYYPHTFGQGTRLEIK	Kd (native human ApoC3 [3]): 62 nM

Continued, binder first:

Binder	koff (native human ApoC3 [1])	kon (native human ApoC3 [1])	koff (native human ApoC3 [2])	kon (native human ApoC3 [2])	Ka (native human ApoC3 [3])	koff (native human ApoC3 [3])	kon (native human ApoC3 [3])	KD pH5.5/KD pH7.4 [4]	Ka [5]	koff [5]	kon [5]	Ka [6]	Kd [6]	koff [6]	kon [6]	KD (nM) pH5.5/pH7.4 (native human ApoC3 [7])	Ka (native human ApoC3 [8])	koff (native human ApoC3 [8])	kon (native human ApoC3 [8])	Kd [5]	also measured
5E5VH5VH12_VLWT human IgG1 (antibody, V domains shown) VH: QLQLVESGGGLVQPGGSLRLSCAASGFTFGTYSMRWVRQVPRKALEWVSSIHTDGGGTAYRDSVKGRFTISRDNAKNTLYLQMNNLKPEDTAIYYCVIHGYSDWGQGTQVTVSS VL: ATMLTQSPGSLSVVPGESASISCKTSQGLVHSDGKTYFYWFLQKPGQSPQQLIYQVSNRASGVPDRFTGSGSGTDFTLKISGVKAEDAGVYYCAQGTYYPHTFGSGTRLEIK	0.00316 s⁻¹	156000 M⁻¹ s⁻¹	0.000305 s⁻¹	61600 M⁻¹ s⁻¹																	
5E5VH12_VL8 human IgG1 (antibody, V domains shown, Tested as human IgG1) VH: QLQLVESGGGLVQPGGSLRLSCAASGFTFGTYSMRWVRQVPRKALEWVSSISTDGGGTAYRDSVKGRFTISRDNAKNTLYLQMNNLKPEDTAIYYCVIHGYSDWGQGTQVTVSS VL: ATMLTQSPGSLSVVPGESASISCKTSQGLVHSDGKTYFYWFLQKPGQSPQQLIYQVSNRASGVPDRFTGSGSGTDFTLKISGVKAEDAGVYYCAHGTYYPHTFGSGTRLEIK	0.00165 s⁻¹	188000 M⁻¹ s⁻¹	0.000163 s⁻¹	267000 M⁻¹ s⁻¹																	
5E5VH5_VLWT human IgG1 (antibody, V domains shown) VH: QLQLVESGGGLVQPGGSLRLSCAASGFTFGTYSMRWVRQVPRKALEWVSSIHTDGGGTAYRDSVKGRFTISRDNAKNTLYLQMNNLKPEDTAIYYCVIAGYSDWGQGTQVTVSS VL: ATMLTQSPGSLSVVPGESASISCKTSQGLVHSDGKTYFYWFLQKPGQSPQQLIYQVSNRASGVPDRFTGSGSGTDFTLKISGVKAEDAGVYYCAQGTYYPHTFGSGTRLEIK	0.000203 s⁻¹	155000 M⁻¹ s⁻¹	3.77e-05 s⁻¹	178000 M⁻¹ s⁻¹																	
5E5VHWT_VL8 human IgG1 (antibody, V domains shown) VH: QLQLVESGGGLVQPGGSLRLSCAASGFTFGTYSMRWVRQVPRKALEWVSSISTDGGGTAYRDSVKGRFTISRDNAKNTLYLQMNNLKPEDTAIYYCVIAGYSDWGQGTQVTVSS VL: ATMLTQSPGSLSVVPGESASISCKTSQGLVHSDGKTYFYWFLQKPGQSPQQLIYQVSNRASGVPDRFTGSGSGTDFTLKISGVKAEDAGVYYCAHGTYYPHTFGSGTRLEIK	4.06e-05 s⁻¹	731000 M⁻¹ s⁻¹	2.84e-05 s⁻¹	782000 M⁻¹ s⁻¹																	
5E5VH5_VL8 human IgG1 (antibody, V domains shown, Tested as human IgG1; the tested lot is not tied to them in words) VH: QLQLVESGGGLVQPGGSLRLSCAASGFTFGTYSMRWVRQVPRKALEWVSSIHTDGGGTAYRDSVKGRFTISRDNAKNTLYLQMNNLKPEDTAIYYCVIAGYSDWGQGTQVTVSS VL: ATMLTQSPGSLSVVPGESASISCKTSQGLVHSDGKTYFYWFLQKPGQSPQQLIYQVSNRASGVPDRFTGSGSGTDFTLKISGVKAEDAGVYYCAHGTYYPHTFGSGTRLEIK	0.00242 s⁻¹	211000 M⁻¹ s⁻¹	0.000173 s⁻¹	177000 M⁻¹ s⁻¹	3.35e+06 M⁻¹	0.0127 s⁻¹	42700 M⁻¹ s⁻¹	11.7	8.74e+07 M⁻¹	0.00242 s⁻¹	211000 M⁻¹ s⁻¹	1.03e+09 M⁻¹	0.98 nM	0.000173 s⁻¹	177000 M⁻¹ s⁻¹						
mAb12 (antibody, IgG1, V domains shown, Produced as full length IgG1 (kappa) in ExpiCHO-S cells; also called humanized anti-ApoC3 antibody mAb12) VH: QLVESGGGLVQPGGSLRLSCAASGFTFSTYSMRWVRQVPGKGLEWVSSIHTDAGGTAYRDSVKGRFTISRDNAKNTLYLQMNSLRPEDTAIYYCVIAGYSDWGQGTLVTVSS VL: DIVMTQSPLSLSVTPGEPASISCKTSQGLVHSDGKTYFYWFLQKPGQSPQQLIYQVSNRASGVPDRFTGSGSGTDFTLKISRVKAEDVGVYYCAHGTYYPHTFGQGTRLEIK					3.12e+06 M⁻¹	0.00655 s⁻¹	20400 M⁻¹ s⁻¹	2.12	7.18e+09 M⁻¹	6.73e-05 s⁻¹	483000 M⁻¹ s⁻¹	1.53e+10 M⁻¹	0.07 nM	1.49e-05 s⁻¹	228000 M⁻¹ s⁻¹	1.07	2.91e+06 M⁻¹	0.0251 s⁻¹	73200 M⁻¹ s⁻¹	0.14 nM	
